Measured values taken from article PMC4162156.

Target: β-PrP^23–231 (full-length recombinant mouse PrP residues 23–231 refolded to the β-sheet conformation) (mouse) (UniProt P04925)
Assay: AUC

Substance “β-PrP^23–231 (full-length recombinant mouse PrP residues 23–231 refolded to the β-sheet conformation) (from UniProt P04925 23-231) (natural protein)” has a percentage occupancy of sample (oligomer) of 61% and a stoichiometry N (monomer subunits) of 12.
